According to patent US8680233B2, “Heteropeptides useful for reducing nonspecific adsorption” (Valorisation-Recherche, Limited Partnership, priority 2009, dated 2014):
Square brackets hold non-standard residues; d marks the D form. Mpa = O=C(O)CCS

Tests used:
[1] = Capillary electrophoresis, global charge of the peptide; assay type: physicochemical
Experimental: Capillary electrophoresis was performed to determine if this difference of configuration is due to the global charge of the peptide.

[2] = Surface concentration of the peptide monolayer on Au by SPR; assay type: physicochemical; conditions: peptide SAM on Au SPR sensor; average of four replicates
Experimental: The surface coverage for each monolayer was measured according to the change in response of the SPR sensor in PBS for the bare Au surface relative to the peptide-coated Au surface. To measure the formation of the monolayers, each SPR sensor was mounted on a custom-made SPR instrument in the Kretschmann configuration based on a dove prism with wavelength interrogation as previously described (Bolduc et al., 2009, supra). An Ocean Optics™ USB4000 fibre optic spectrometer ranging from 550 to 850 nm was used to acquire the spectral information processed with Matlab to obtain the SPR sensorgram. A 25 μL Teflon fluidic cell positioned on top of the SPR sensors was used to inject the solutions required to functionalize with the recognition element and detect the analytes of interest. The SPR response was acquired at a frequency of 1 Hz. The s-polarized reference was acquired in PBS buffer before monitoring a 5 minute baseline in p-polarization. PBS was replaced with crude bovine serum (76 mg/mL protein) for 20 minutes and rinsed with PBS for 5 minutes to quantify the amount of non-specifically adsorbed proteins.
The formation of monolayers on Au was measured to ensure that the peptide monolayers are indeed binding to the SPR sensor. The surface concentration of the monolayer provides a measurement of the number of molecules per square cm (i.e. the density of the monolayer at the surface). The surface concentration (Γ) of peptide-like self-assembled monolayers (SAMs) was characterized with the measurement of the SPR response before the formation of the SAMs and after their formation on the Au surface of the SPR sensor. The difference of SPR wavelength (λSPR) between these two measurements increases with the increasing surface concentration of the SAMs following the equation proposed by Jung et al. (Jung, L. S. et al. Langmuir 1998, 14: 5636): Γ=ρ(−0.5/d)ln(1−(ΔλSPRm^−1(ηSAM−ηPBS)^−1)) (eq. 1)

[3] = Advancing contact angle in PBS on peptide SAMs; assay type: physicochemical; conditions: average of four replicates
[4] = Secondary structure of peptide SAM by FT-IR (mid-IR amide band); assay type: physicochemical; conditions: peptide SAM on gold-coated SPR sensor
Experimental: Microscope slides (BK7, 22×22 mm) were coated with a 3 nm titanium (Ti) adhesion layer and a 50 nm gold (Au) layer (purity 99.99%, ESPI metals) using a Cressington™ 308R sputter coater. These Au-coated SPR slides were immersed for at least 16 h in a 5 mM peptide solution in absolute ethanol to form a well-ordered monolayer (Masson, J. F. et al. Talanta 2004, 64: 716). Four replicates were prepared for each 3-MPA-peptide. The SAM formed on the SPR sensors was extensively rinsed with DMF and ethanol and dried. The mid-IR spectrum of the peptide monolayers immobilized on the SPR sensors was measured in attenuated total reflectance (ATR). Mid-IR spectra were recorded using a BRUKER TENSOR® 27 equipped with a Ge-ATR module.
The 3D structure of the peptides as SAMs is observed with the amide band visible in FT-IR. Peptides adopting an α-helix configuration are showing a strong amide band at 1645 cm^−1, while peptides auto-assembling in the β-sheet configuration leads to a shifted amide at 1675 cm^−1. Every peptide structure investigated in Table 1 adopted an α-helix configuration except for 3-MPA-HHHDD-OH, as shown in FIG. 3.
Peptides adopt secondary conformation, which plays a significant role in their biological activity. For peptides in solution, the secondary conformation is measured with CD, while peptides immobilized on a surface can be analyzed with mid-IR spectroscopy of the amide bands (Duevel, R. V., Corn, R. M., 1992. Analytical Chemistry 64(4), 337-342; Sakurai, T. et al., 2006. Journal of Peptide Science 12(6), 396-402). As listed in Table II, the secondary structure of most peptides adopted an α-helical conformation, with the exception of 3-MPA-DSDSD-OH, which adopted an extended conformation. As noted above, most peptides in the form of 3-MPA-peptide-OH adopt an α-helical conformation. Generally, mid-IR and CD agreed in the determination of the structures on surfaces and in solution, with the exception of one peptide. […] No relationship between structure and nonspecific adsorption could be established.

[5] = biological target: T1, human dihydrofolate reductase (hDHFR) (Homo sapiens, UniProt P00374); conditions: previously determined in presence of saturating reactants; cited from earlier work
T1 construct: made in house
T1 sequence (P00374 1-187): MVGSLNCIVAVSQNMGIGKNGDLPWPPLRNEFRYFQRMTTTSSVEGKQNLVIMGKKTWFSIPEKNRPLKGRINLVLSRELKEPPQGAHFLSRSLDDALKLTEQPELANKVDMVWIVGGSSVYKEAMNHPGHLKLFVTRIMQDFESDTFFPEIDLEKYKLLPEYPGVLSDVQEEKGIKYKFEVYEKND

[6] = biological target: T1, human dihydrofolate reductase (hDHFR); test: Real-time UV/Vis monitoring of the enzymatic reaction of immobilized hDHFR; assay type: biochemical
Experimental: The peptidomimetic monolayer binding His-tagged biomolecules was exposed for a period of 15 min to a 50 μg/mL PBS solution of His-tagged hDHFR, then rinsed with PBS. The SPR sensor with His-tagged hDHFR was placed in a UV/Vis cuvette, similar to a method developed by Knoll et al. (Xu et al., 2005. Journal of the American Chemical Society 127(38), 13084-13085). His-tagged hDHFR was obtained as previously reported (Volpato et al., 2007 Journal of Molecular Biology 373, 599-611). A negative control, consisting of the peptidomimetic-modified SPR sensor without hDHFR was exposed to buffer and rinsed to verify that the observed change in absorbance was due to immobilized His-tagged hDHFR and not to the surface itself. The enzymatic reaction catalyzed by hDHFR was monitored by UV/Vis spectrometry. The SPR sensors were immersed in a solution of 100 μM NADPH (cofactor) and 100 μM dihydrofolate (DHF, substrate) in 10 mM Tris buffer, pH=8.0, for 1 hour. The activity of the enzyme was measured by following the time course of the absorption (ΔA(t)) at λ=340 nm due to consumption of NADPH and DHF, by subtracting the blank signal (Ablank(t)) and the initial absorbance of the solution (A(O)). The activity was confirmed for each sample of His-tagged hDHFR on the SPR sensor. 1 U of enzyme activity corresponds to conversion of 1 μmol substrate to product per min. Absorption spectra were recorded with a Cary 100 Bio UV/Vis spectrometer equipped with a liquid temperature control system running at 35° C. to be in the optimal condition for the enzymatic reaction to take place. After monitoring the activity, the SPR sensors were rinsed with buffer, 18.2 MΩ water and the His-tagged hDHFR was removed from the surface with a 0.5 M imidazole solution for 10 minutes. […]
In contrast with those results, immobilizing His-tagged hDHFR on the peptidomimetic monolayer allowed to retain the activity of the enzyme. This is observed by a consumption of the reactants (NADPH and DHF), decreasing the absorbance measured at λ=340 nm (FIG. 3). According to the absorption coefficient (Δ∈=12.8 mM^−1 cm^−1), the measured slope (5.7*10 Abs/min) corresponded to an activity of 4.4±0.8*10^−5 U. The specific activity of His-tagged hDHFR previously determined in presence of saturating reactants was 8.5 U/mg. Thus, the activity measured on the surface corresponded to 5±0.9 ng (n=4) of fully active hDHFR. […] The fraction of active enzyme on the surface cannot be determined, because the activity measured for the enzyme immobilized on the surface of the SPR is a factor of the activity of the enzyme (as for the enzyme in solution) and the time required for the products to diffuse in the light beam of the UV-Vis (not a factor for the enzyme in solution). […]

Molecule: 3-MPA-HHDDD-OH ([Mpa]HHDDD-OH; SMILES O=C(O)C[C@H](NC(=O)[C@H](CC(=O)O)NC(=O)[C@H](CC(=O)O)NC(=O)[C@H](Cc1c[nH]cn1)NC(=O)[C@H](Cc1c[nH]cn1)NC(=O)CCS)C(=O)O)
- Global charge of the peptide [1]: about −1

Molecule: 3-MPA-HHHDD-OH ([Mpa]HHHDD-OH; SMILES O=C(O)C[C@H](NC(=O)[C@H](CC(=O)O)NC(=O)[C@H](Cc1c[nH]cn1)NC(=O)[C@H](Cc1c[nH]cn1)NC(=O)[C@H](Cc1c[nH]cn1)NC(=O)CCS)C(=O)O)
- Surface density ΔΓSAM [2]: 0.230 10^15 molecule/cm^2
- Global charge of the peptide [1]: about −1
- Contact angle in PBS θC_PBS [3]: 37.8 °
- Secondary Structure FT-IR (SAM) [4]: β-sheet

Molecule: 3-MPA-HHHHD-OH ([Mpa]HHHHD-OH; SMILES O=C(O)C[C@H](NC(=O)[C@H](Cc1c[nH]cn1)NC(=O)[C@H](Cc1c[nH]cn1)NC(=O)[C@H](Cc1c[nH]cn1)NC(=O)[C@H](Cc1c[nH]cn1)NC(=O)CCS)C(=O)O)
- Global charge of the peptide [1]: about −1

B1: His-tagged hDHFR: His-tagged human dihydrofolate reductase immobilized on the SPR sensor (protein)
chain: T1 sequence (P00374 1-187)
modifications: left off: small tags and cut ends
notes: His-tagged human dihydrofolate reductase immobilized on the SPR sensor
- Specific activity [5]: 8.5 U/mg
- Enzyme activity after covalent immobilization ([6]; covalently immobilized to 16-MHA using EDC/NHS chemistry): inactive
- Average variation of the absorbance value over 60 minutes ([6]; four sensors regenerated with imidazole, n=8): −0.034±0.006
- Enzyme activity of immobilized enzyme ([6]; immobilized on peptidomimetic monolayer, absorbance at 340 nm): 4.4±0.8*10^−5 U
- Amount of fully active enzyme corresponding to the measured surface activity ([6]; n=4): 5 ± 0.9 ng
